# *1 amine or outer side, *2 acyl side, *3 side chain or, on linkers, in order; H or OH if unused. The star is where a group is joined. C20 diacid = O=C(O)CCCCCCCCCCCCCCCCCCC(=O)*; C18 diacid = O=C(O)CCCCCCCCCCCCCCCCC(=O)*; C16 diacid = O=C(O)CCCCCCCCCCCCCCC(=O)*; γGlu = O=C(O)[C@H](CCC(=O)[*:2])N[*:1]; AEEA = NCCOCCOCC(=O)O
# T1: human amylin receptor (AMY3) on CHO-K1/Gal5/AMY3 cells (human, UniProt P30988 25-474; O60896 24-148)
# T1 sequence (looked up) 1: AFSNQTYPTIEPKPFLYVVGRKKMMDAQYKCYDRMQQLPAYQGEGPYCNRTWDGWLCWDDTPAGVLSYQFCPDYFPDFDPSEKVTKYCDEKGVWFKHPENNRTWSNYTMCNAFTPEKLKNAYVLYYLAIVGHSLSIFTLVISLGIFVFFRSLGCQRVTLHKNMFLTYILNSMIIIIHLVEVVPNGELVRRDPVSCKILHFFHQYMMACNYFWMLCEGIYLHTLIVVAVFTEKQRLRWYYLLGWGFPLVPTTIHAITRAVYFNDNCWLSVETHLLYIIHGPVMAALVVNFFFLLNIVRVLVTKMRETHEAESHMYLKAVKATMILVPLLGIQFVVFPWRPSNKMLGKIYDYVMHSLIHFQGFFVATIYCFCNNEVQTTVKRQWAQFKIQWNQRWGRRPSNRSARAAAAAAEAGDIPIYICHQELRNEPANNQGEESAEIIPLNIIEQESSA
# T1 sequence (looked up) 2: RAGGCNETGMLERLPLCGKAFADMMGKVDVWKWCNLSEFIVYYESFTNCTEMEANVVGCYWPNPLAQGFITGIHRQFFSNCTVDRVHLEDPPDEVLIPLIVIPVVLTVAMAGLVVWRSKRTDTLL
# Target: T1, human amylin receptor (AMY3) on …
# Assay: cell-based or functional assay
row,Binder,"EC50/nM, CRE-luciferase in amylin receptor/CRE-luc CHO cells"
1,{C16 diacid-γGlu}-ASQLSTAVLGRLSDELHRLQDYPRTDVGSGSP-NH2 (SMILES CC(C)C[C@H](NC(=O)[C@H](CCCNC(=N)N)NC(=O)CNC(=O)[C@H](CC(C)C)NC(=O)[C@@H](NC(=O)[C@H](C)NC(=O)[C@@H](NC(=O)[C@H](CO)NC(=O)[C@H](CC(C)C)NC(=O)[C@H](CCC(N)=O)NC(=O)[C@H](CO)NC(=O)[C@H](C)NC(=O)CC[C@H](NC(=O)CCCCCCCCCCCCCCC(=O)O)C(=O)O)[C@@H](C)O)C(C)C)C(=O)N[C@@H](CO)C(=O)N[C@@H](CC(=O)O)C(=O)N[C@@H](CCC(=O)O)C(=O)N[C@@H](CC(C)C)C(=O)N[C@@H](Cc1c[nH]cn1)C(=O)N[C@@H](CCCNC(=N)N)C(=O)N[C@@H](CC(C)C)C(=O)N[C@@H](CCC(N)=O)C(=O)N[C@@H](CC(=O)O)C(=O)N[C@@H](Cc1ccc(O)cc1)C(=O)N1CCC[C@H]1C(=O)N[C@@H](CCCNC(=N)N)C(=O)N[C@H](C(=O)N[C@@H](CC(=O)O)C(=O)N[C@H](C(=O)NCC(=O)N[C@@H](CO)C(=O)NCC(=O)N[C@@H](CO)C(=O)N1CCC[C@H]1C(N)=O)C(C)C)[C@@H](C)O) [calcitonin derivative M40],0.002 nM
2,{C18 diacid}-DASQLSTAVLGRLSQELHRLQDYPRTDVGSGSP-NH2 (SMILES CC(C)C[C@H](NC(=O)[C@H](CCCNC(=N)N)NC(=O)CNC(=O)[C@H](CC(C)C)NC(=O)[C@@H](NC(=O)[C@H](C)NC(=O)[C@@H](NC(=O)[C@H](CO)NC(=O)[C@H](CC(C)C)NC(=O)[C@H](CCC(N)=O)NC(=O)[C@H](CO)NC(=O)[C@H](C)NC(=O)[C@H](CC(=O)O)NC(=O)CCCCCCCCCCCCCCCCC(=O)O)[C@@H](C)O)C(C)C)C(=O)N[C@@H](CO)C(=O)N[C@@H](CCC(N)=O)C(=O)N[C@@H](CCC(=O)O)C(=O)N[C@@H](CC(C)C)C(=O)N[C@@H](Cc1c[nH]cn1)C(=O)N[C@@H](CCCNC(=N)N)C(=O)N[C@@H](CC(C)C)C(=O)N[C@@H](CCC(N)=O)C(=O)N[C@@H](CC(=O)O)C(=O)N[C@@H](Cc1ccc(O)cc1)C(=O)N1CCC[C@H]1C(=O)N[C@@H](CCCNC(=N)N)C(=O)N[C@H](C(=O)N[C@@H](CC(=O)O)C(=O)N[C@H](C(=O)NCC(=O)N[C@@H](CO)C(=O)NCC(=O)N[C@@H](CO)C(=O)N1CCC[C@H]1C(N)=O)C(C)C)[C@@H](C)O) [calcitonin derivative M23],0.01 nM
3,{C20 diacid-γGlu}-ASQLSTAVLGRLSEELHRLQDYPRTDVGSGSP-NH2 (SMILES CC(C)C[C@H](NC(=O)[C@H](CCCNC(=N)N)NC(=O)CNC(=O)[C@H](CC(C)C)NC(=O)[C@@H](NC(=O)[C@H](C)NC(=O)[C@@H](NC(=O)[C@H](CO)NC(=O)[C@H](CC(C)C)NC(=O)[C@H](CCC(N)=O)NC(=O)[C@H](CO)NC(=O)[C@H](C)NC(=O)CC[C@H](NC(=O)CCCCCCCCCCCCCCCCCCC(=O)O)C(=O)O)[C@@H](C)O)C(C)C)C(=O)N[C@@H](CO)C(=O)N[C@@H](CCC(=O)O)C(=O)N[C@@H](CCC(=O)O)C(=O)N[C@@H](CC(C)C)C(=O)N[C@@H](Cc1c[nH]cn1)C(=O)N[C@@H](CCCNC(=N)N)C(=O)N[C@@H](CC(C)C)C(=O)N[C@@H](CCC(N)=O)C(=O)N[C@@H](CC(=O)O)C(=O)N[C@@H](Cc1ccc(O)cc1)C(=O)N1CCC[C@H]1C(=O)N[C@@H](CCCNC(=N)N)C(=O)N[C@H](C(=O)N[C@@H](CC(=O)O)C(=O)N[C@H](C(=O)NCC(=O)N[C@@H](CO)C(=O)NCC(=O)N[C@@H](CO)C(=O)N1CCC[C@H]1C(N)=O)C(C)C)[C@@H](C)O) [calcitonin derivative M9],0.017 nM
4,{C18 diacid}-EASQLSTAVLGRLSQELHRLQDYPRTDVGSGSP-NH2 (SMILES CC(C)C[C@H](NC(=O)[C@H](CCCNC(=N)N)NC(=O)CNC(=O)[C@H](CC(C)C)NC(=O)[C@@H](NC(=O)[C@H](C)NC(=O)[C@@H](NC(=O)[C@H](CO)NC(=O)[C@H](CC(C)C)NC(=O)[C@H](CCC(N)=O)NC(=O)[C@H](CO)NC(=O)[C@H](C)NC(=O)[C@H](CCC(=O)O)NC(=O)CCCCCCCCCCCCCCCCC(=O)O)[C@@H](C)O)C(C)C)C(=O)N[C@@H](CO)C(=O)N[C@@H](CCC(N)=O)C(=O)N[C@@H](CCC(=O)O)C(=O)N[C@@H](CC(C)C)C(=O)N[C@@H](Cc1c[nH]cn1)C(=O)N[C@@H](CCCNC(=N)N)C(=O)N[C@@H](CC(C)C)C(=O)N[C@@H](CCC(N)=O)C(=O)N[C@@H](CC(=O)O)C(=O)N[C@@H](Cc1ccc(O)cc1)C(=O)N1CCC[C@H]1C(=O)N[C@@H](CCCNC(=N)N)C(=O)N[C@H](C(=O)N[C@@H](CC(=O)O)C(=O)N[C@H](C(=O)NCC(=O)N[C@@H](CO)C(=O)NCC(=O)N[C@@H](CO)C(=O)N1CCC[C@H]1C(N)=O)C(C)C)[C@@H](C)O) [calcitonin derivative M24],0.016 nM

# Results, then the binder that gave them:
row,"EC50/nM, CRE-luciferase in amylin receptor/CRE-luc CHO cells",Binder
1,0.069 nM,{C20 diacid}-EASQLSTAVLGRLSDELHRLQDYPRTDVGSGSP-NH2 (SMILES CC(C)C[C@H](NC(=O)[C@H](CCCNC(=N)N)NC(=O)CNC(=O)[C@H](CC(C)C)NC(=O)[C@@H](NC(=O)[C@H](C)NC(=O)[C@@H](NC(=O)[C@H](CO)NC(=O)[C@H](CC(C)C)NC(=O)[C@H](CCC(N)=O)NC(=O)[C@H](CO)NC(=O)[C@H](C)NC(=O)[C@H](CCC(=O)O)NC(=O)CCCCCCCCCCCCCCCCCCC(=O)O)[C@@H](C)O)C(C)C)C(=O)N[C@@H](CO)C(=O)N[C@@H](CC(=O)O)C(=O)N[C@@H](CCC(=O)O)C(=O)N[C@@H](CC(C)C)C(=O)N[C@@H](Cc1c[nH]cn1)C(=O)N[C@@H](CCCNC(=N)N)C(=O)N[C@@H](CC(C)C)C(=O)N[C@@H](CCC(N)=O)C(=O)N[C@@H](CC(=O)O)C(=O)N[C@@H](Cc1ccc(O)cc1)C(=O)N1CCC[C@H]1C(=O)N[C@@H](CCCNC(=N)N)C(=O)N[C@H](C(=O)N[C@@H](CC(=O)O)C(=O)N[C@H](C(=O)NCC(=O)N[C@@H](CO)C(=O)NCC(=O)N[C@@H](CO)C(=O)N1CCC[C@H]1C(N)=O)C(C)C)[C@@H](C)O) [calcitonin derivative M41]
2,0.016 nM,{C20 diacid-γGlu}-ASQLSTAVLGRLSQELHRLQDYPRTDVGAGSP-NH2 (SMILES CC(C)C[C@H](NC(=O)[C@H](CCCNC(=N)N)NC(=O)CNC(=O)[C@H](CC(C)C)NC(=O)[C@@H](NC(=O)[C@H](C)NC(=O)[C@@H](NC(=O)[C@H](CO)NC(=O)[C@H](CC(C)C)NC(=O)[C@H](CCC(N)=O)NC(=O)[C@H](CO)NC(=O)[C@H](C)NC(=O)CC[C@H](NC(=O)CCCCCCCCCCCCCCCCCCC(=O)O)C(=O)O)[C@@H](C)O)C(C)C)C(=O)N[C@@H](CO)C(=O)N[C@@H](CCC(N)=O)C(=O)N[C@@H](CCC(=O)O)C(=O)N[C@@H](CC(C)C)C(=O)N[C@@H](Cc1c[nH]cn1)C(=O)N[C@@H](CCCNC(=N)N)C(=O)N[C@@H](CC(C)C)C(=O)N[C@@H](CCC(N)=O)C(=O)N[C@@H](CC(=O)O)C(=O)N[C@@H](Cc1ccc(O)cc1)C(=O)N1CCC[C@H]1C(=O)N[C@@H](CCCNC(=N)N)C(=O)N[C@H](C(=O)N[C@@H](CC(=O)O)C(=O)N[C@H](C(=O)NCC(=O)N[C@@H](C)C(=O)NCC(=O)N[C@@H](CO)C(=O)N1CCC[C@H]1C(N)=O)C(C)C)[C@@H](C)O) [calcitonin derivative M19]
3,0.017 nM,{C20 diacid-γGlu-AEEA-AEEA}-ASQLSTAVLGRLSEELHRLQDYPRTDVGSGSP-NH2 (SMILES CC(C)C[C@H](NC(=O)[C@H](CCCNC(=N)N)NC(=O)CNC(=O)[C@H](CC(C)C)NC(=O)[C@@H](NC(=O)[C@H](C)NC(=O)[C@@H](NC(=O)[C@H](CO)NC(=O)[C@H](CC(C)C)NC(=O)[C@H](CCC(N)=O)NC(=O)[C@H](CO)NC(=O)[C@H](C)NC(=O)COCCOCCNC(=O)COCCOCCNC(=O)CC[C@H](NC(=O)CCCCCCCCCCCCCCCCCCC(=O)O)C(=O)O)[C@@H](C)O)C(C)C)C(=O)N[C@@H](CO)C(=O)N[C@@H](CCC(=O)O)C(=O)N[C@@H](CCC(=O)O)C(=O)N[C@@H](CC(C)C)C(=O)N[C@@H](Cc1c[nH]cn1)C(=O)N[C@@H](CCCNC(=N)N)C(=O)N[C@@H](CC(C)C)C(=O)N[C@@H](CCC(N)=O)C(=O)N[C@@H](CC(=O)O)C(=O)N[C@@H](Cc1ccc(O)cc1)C(=O)N1CCC[C@H]1C(=O)N[C@@H](CCCNC(=N)N)C(=O)N[C@H](C(=O)N[C@@H](CC(=O)O)C(=O)N[C@H](C(=O)NCC(=O)N[C@@H](CO)C(=O)NCC(=O)N[C@@H](CO)C(=O)N1CCC[C@H]1C(N)=O)C(C)C)[C@@H](C)O) [calcitonin derivative M57]

# From patent publication EP4692114A1, “CALCITONIN ANALOGUE, AND DERIVATIVE THEREOF AND USE THEREOF” (Hangzhou Sciwind Biosciences Co., Ltd., priority 2023, dated 2024)
